The FLAb antibody collection (doi:10.7554/elife.23156)

B1: scFv; the commonest letter at each place (parent)
chain 1: EVKLDETGGGLVQPGRPMKLSCVASGFTFSDYWMNWVRQSPEKGLEWVAQIRNKPYNYETYYSDSVKGRFTISRDDSKSSVYLQMNNLRVEDMGIYYCTGSYYGMDYWGQGTSVTVS
chain 2: DVVMTQTPLSLPVSLGDQASISCRSSQSLVHSNGNTYLRWYLQKPGQSPKVLIYKVSNRFSGVPDRFSGSGSGTDFTLKISRVEAEDLGVYFCSQSTHVPWTFGGGTKLEIK

Key:
fluorescein = variants of: B1; test: Kd (Tite-Seq); settings: with fluorescein; format: scFv 4-4-20, heavy + light
[1] = variants of: B1; test: yeast surface expression (ratio to wild type); higher = more expressed; settings: format: scFv 4-4-20, heavy + light

Row | Variant | Kd (fluorescein) [µM] | yeast surface expression [1]
1 | chain 1 Y103R G109I | ≥ 10 | 0.291
2 | chain 1 Y103R G109V | ≥ 10 | 0.47
3 | chain 1 Y103R M105K | 0.00493 | 0.768
4 | chain 1 Y103R Y107F | 0.00546 | 0.936
5 | chain 1 Y103S | 0.0318 | 1.05
6 | chain 1 Y103S D106H | ≥ 10 | 0.542
7 | chain 1 Y103S D106K | ≥ 10 | 0.311
8 | chain 1 Y103S G104D | ≥ 10 | 1.12
9 | chain 1 Y103S G104N | ≥ 10 | 1.04
10 | chain 1 Y103S G109T | ≥ 10 | 0.469
11 | chain 1 Y103S M105R | 0.176 | 0.819
12 | chain 1 Y103S W108R | ≥ 10 | 0.441
13 | chain 1 Y103T | 2.35 | 0.896
14 | chain 1 Y103T D106R | ≥ 10 | 0.311
15 | chain 1 Y103T D106S | ≥ 10 | 0.883
16 | chain 1 Y103T D106Y | ≥ 10 | 0.37
17 | chain 1 Y103T G104Q | ≥ 10 | 0.9
18 | chain 1 Y103T G104W | ≥ 10 | 0.534
19 | chain 1 Y103T M105H | ≥ 10 | 0.849
20 | chain 1 Y103T W108P | ≥ 10 | 0.468
21 | chain 1 Y103T W108S | ≥ 10 | 0.244
22 | chain 1 Y103V | 0.0158 | 0.701
23 | chain 1 Y103V D106H | ≥ 10 | 0.384

Row | Variant | Kd (fluorescein) [µM] | yeast surface expression [1]
24 | chain 1 Y103V G104W | ≥ 10 | 0.419
25 | chain 1 Y103V G109L | ≥ 10 | 0.247
26 | chain 1 Y103V M105P | ≥ 10 | 0.474
27 | chain 1 Y103V W108Y | 0.0011 | 0.619
28 | chain 1 Y103V Y107M | ≥ 10 | 0.53
29 | chain 1 Y103V Y107V | ≥ 10 | 0.603
30 | chain 1 Y103W | 0.228 | 0.862
31 | chain 1 Y103W D106K | ≥ 10 | 0.245
32 | chain 1 Y103W D106T | ≥ 10 | 0.875
33 | chain 1 Y103W G104F M105E | ≥ 10 | 0.578
34 | chain 1 Y103W G104P | ≥ 10 | 1
35 | chain 1 Y103W G109A | ≥ 10 | 0.557
36 | chain 1 Y103W G109S | ≥ 10 | 0.653
37 | chain 1 Y103W M105L G109W | ≥ 10 | 0.199
38 | chain 1 Y103W M105T | ≥ 10 | 0.915
39 | chain 1 Y103W W108L | 0.00166 | 0.629
40 | chain 1 Y103W W108S | ≥ 10 | 0.526
41 | chain 1 Y103W Y107W | 0.00966 | 0.724
42 | chain 1 Y107A | 7.33 | 1
43 | chain 1 Y107A G109L | ≥ 10 | 0.218
44 | chain 1 Y107A G109M | ≥ 10 | 0.209
45 | chain 1 Y107A G109Q | ≥ 10 | 0.292
46 | chain 1 Y107A W108A | ≥ 10 | 0.351

Row | Variant | Kd (fluorescein) [µM] | yeast surface expression [1]
47 | chain 1 Y107C | ≥ 10 | 0.592
48 | chain 1 Y107C W108V | 0.00468 | 0.304
49 | chain 1 Y107D | 7.72 | 0.779
50 | chain 1 Y107D G109R | ≥ 10 | 0.366
51 | chain 1 Y107D W108C | ≥ 10 | 0.269
52 | chain 1 Y107D W108N | ≥ 10 | 0.477
53 | chain 1 Y107D W108Q | ≥ 10 | 0.706
54 | chain 1 Y107E | 1.72 | 0.803
55 | chain 1 Y107E G109E | ≥ 10 | 0.288
56 | chain 1 Y107E W108E | ≥ 10 | 0.485
57 | chain 1 Y107E W108K | ≥ 10 | 0.513
58 | chain 1 Y107F | 0.0017 | 0.928
59 | chain 1 Y107F G109E | ≥ 10 | 0.259
60 | chain 1 Y107F G109N | ≥ 10 | 0.555
61 | chain 1 Y107F W108E | ≥ 10 | 0.411
62 | chain 1 Y107G | ≥ 10 | 0.544
63 | chain 1 Y107G G109V | ≥ 10 | 0.273
64 | chain 1 Y107G W108A | ≥ 10 | 0.528
65 | chain 1 Y107G W108L G109E | ≥ 10 | 0.331
66 | chain 1 Y107H | 0.00251 | 1
67 | chain 1 Y107H W108T | 0.000989 | 0.924
68 | chain 1 Y107I | 0.676 | 0.995
69 | chain 1 Y107I G109K | ≥ 10 | 0.234

Row | Variant | Kd (fluorescein) [µM] | yeast surface expression [1]
70 | chain 1 Y107I G109Q | ≥ 10 | 0.442
71 | chain 1 Y107I W108R | ≥ 10 | 0.466
72 | chain 1 Y107I W108S | ≥ 10 | 0.786
73 | chain 1 Y107K | ≥ 10 | 0.637
74 | chain 1 Y107K W108A | ≥ 10 | 0.575
75 | chain 1 Y107K W108Q | ≥ 10 | 0.659
76 | chain 1 Y107L | 1.91 | 1.01
77 | chain 1 Y107L G109R | ≥ 10 | 0.343
78 | chain 1 Y107L G109V | ≥ 10 | 0.298
79 | chain 1 Y107L W108D | ≥ 10 | 0.326
80 | chain 1 Y107L W108L | 0.000939 | 0.676
81 | chain 1 Y107M | 0.0372 | 0.921
82 | chain 1 Y107M G109K | ≥ 10 | 0.42
83 | chain 1 Y107M G109Q | ≥ 10 | 0.353
84 | chain 1 Y107N | 0.0104 | 0.775
85 | chain 1 Y107N G109K | ≥ 10 | 0.306
86 | chain 1 Y107N G109P | ≥ 10 | 0.28
87 | chain 1 Y107N G109S | 0.0391 | 0.836
88 | chain 1 Y107N W108D G109C | ≥ 10 | 0.313
89 | chain 1 Y107P | ≥ 10 | 0.414
90 | chain 1 Y107P G109N | ≥ 10 | 0.355
91 | chain 1 Y107P W108A | ≥ 10 | 0.455
92 | chain 1 Y107Q | 0.0194 | 0.757

Row | Variant | Kd (fluorescein) [µM] | yeast surface expression [1]
93 | chain 1 Y107Q W108Q | ≥ 10 | 0.385
94 | chain 1 Y107R | 0.102 | 0.767
95 | chain 1 Y107R G109H | ≥ 10 | 0.277
96 | chain 1 Y107R G109S | 2.47 | 0.665
97 | chain 1 Y107R W108N | ≥ 10 | 0.495
98 | chain 1 Y107S | 0.00239 | 0.77
99 | chain 1 Y107S G109C | ≥ 10 | 0.174
100 | chain 1 Y107S W108D | ≥ 10 | 0.322
101 | chain 1 Y107S W108S | ≥ 10 | 0.484
102 | chain 1 Y107T | 0.000784 | 0.965
103 | chain 1 Y107T G109C | ≥ 10 | 0.278
104 | chain 1 Y107T W108A | 0.00215 | 0.476
105 | chain 1 Y107V | 0.122 | 1.15
106 | chain 1 Y107V G109E | ≥ 10 | 0.339
107 | chain 1 Y107V W108D | ≥ 10 | 0.425
108 | chain 1 Y107V W108R | ≥ 10 | 0.492
109 | chain 1 Y107V W108Y | 0.000688 | 0.724
110 | chain 1 Y107W | 0.000846 | 1.11
111 | chain 1 Y107W G109K | ≥ 10 | 0.336
112 | chain 1 Y107W W108T | ≤ 0.000316 | 0.647
113 | unchanged | 0.00135 | 1
